The term stoichiometry N denotes the number of molecules, sites or subunits per partner or assembly.

Drawing on article PMC7980781, this text covers stoichiometry N for one molecule.

For the experiment, the target named is T1, Purified 6xHis tagged recombinant FLCN, Q8NFG4.
T1 chain: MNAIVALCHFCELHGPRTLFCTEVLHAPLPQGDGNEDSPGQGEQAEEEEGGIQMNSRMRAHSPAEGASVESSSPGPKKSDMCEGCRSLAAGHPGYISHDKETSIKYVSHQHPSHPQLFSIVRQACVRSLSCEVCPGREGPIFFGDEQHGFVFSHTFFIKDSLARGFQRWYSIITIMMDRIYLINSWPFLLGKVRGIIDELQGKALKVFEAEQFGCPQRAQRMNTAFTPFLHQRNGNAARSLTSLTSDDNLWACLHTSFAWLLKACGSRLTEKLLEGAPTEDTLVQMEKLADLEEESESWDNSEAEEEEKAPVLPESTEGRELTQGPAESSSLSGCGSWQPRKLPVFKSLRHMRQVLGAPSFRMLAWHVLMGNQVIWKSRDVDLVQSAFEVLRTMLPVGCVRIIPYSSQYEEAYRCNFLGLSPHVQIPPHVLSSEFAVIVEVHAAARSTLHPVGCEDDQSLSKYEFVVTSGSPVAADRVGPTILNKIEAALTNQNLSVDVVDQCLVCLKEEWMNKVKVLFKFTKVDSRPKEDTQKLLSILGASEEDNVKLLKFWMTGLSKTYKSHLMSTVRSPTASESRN
Kind of experiment: native gel or EMSA. To be noted: remark: other sources report otherwise.

B1: Purified 6xHis tagged recombinant FLCN, Q8NFG4 1-579 (natural protein)
chain: MNAIVALCHFCELHGPRTLFCTEVLHAPLPQGDGNEDSPGQGEQAEEEEGGIQMNSRMRAHSPAEGASVESSSPGPKKSDMCEGCRSLAAGHPGYISHDKETSIKYVSHQHPSHPQLFSIVRQACVRSLSCEVCPGREGPIFFGDEQHGFVFSHTFFIKDSLARGFQRWYSIITIMMDRIYLINSWPFLLGKVRGIIDELQGKALKVFEAEQFGCPQRAQRMNTAFTPFLHQRNGNAARSLTSLTSDDNLWACLHTSFAWLLKACGSRLTEKLLEGAPTEDTLVQMEKLADLEEESESWDNSEAEEEEKAPVLPESTEGRELTQGPAESSSLSGCGSWQPRKLPVFKSLRHMRQVLGAPSFRMLAWHVLMGNQVIWKSRDVDLVQSAFEVLRTMLPVGCVRIIPYSSQYEEAYRCNFLGLSPHVQIPPHVLSSEFAVIVEVHAAARSTLHPVGCEDDQSLSKYEFVVTSGSPVAADRVGPTILNKIEAALTNQNLSVDVVDQCLVCLKEEWMNKVKVLFKFTKVDSRPKEDTQKLLSILGASEEDNVKLLKFWMTGLSKTYKSHLMSTVRSPTASESRN
For B1, the stoichiometry N was 2.
